The values that follow come from patent publication US20250262210A1 (TRUSTEES OF COLUMBIA UNIVERSITY IN THE CITY OF NEW YORK, published 2025).

One assay addresses T1, KIAA1468 (human, UniProt Q9P260 2-1216, limits assumed).
T1 sequence (looked up): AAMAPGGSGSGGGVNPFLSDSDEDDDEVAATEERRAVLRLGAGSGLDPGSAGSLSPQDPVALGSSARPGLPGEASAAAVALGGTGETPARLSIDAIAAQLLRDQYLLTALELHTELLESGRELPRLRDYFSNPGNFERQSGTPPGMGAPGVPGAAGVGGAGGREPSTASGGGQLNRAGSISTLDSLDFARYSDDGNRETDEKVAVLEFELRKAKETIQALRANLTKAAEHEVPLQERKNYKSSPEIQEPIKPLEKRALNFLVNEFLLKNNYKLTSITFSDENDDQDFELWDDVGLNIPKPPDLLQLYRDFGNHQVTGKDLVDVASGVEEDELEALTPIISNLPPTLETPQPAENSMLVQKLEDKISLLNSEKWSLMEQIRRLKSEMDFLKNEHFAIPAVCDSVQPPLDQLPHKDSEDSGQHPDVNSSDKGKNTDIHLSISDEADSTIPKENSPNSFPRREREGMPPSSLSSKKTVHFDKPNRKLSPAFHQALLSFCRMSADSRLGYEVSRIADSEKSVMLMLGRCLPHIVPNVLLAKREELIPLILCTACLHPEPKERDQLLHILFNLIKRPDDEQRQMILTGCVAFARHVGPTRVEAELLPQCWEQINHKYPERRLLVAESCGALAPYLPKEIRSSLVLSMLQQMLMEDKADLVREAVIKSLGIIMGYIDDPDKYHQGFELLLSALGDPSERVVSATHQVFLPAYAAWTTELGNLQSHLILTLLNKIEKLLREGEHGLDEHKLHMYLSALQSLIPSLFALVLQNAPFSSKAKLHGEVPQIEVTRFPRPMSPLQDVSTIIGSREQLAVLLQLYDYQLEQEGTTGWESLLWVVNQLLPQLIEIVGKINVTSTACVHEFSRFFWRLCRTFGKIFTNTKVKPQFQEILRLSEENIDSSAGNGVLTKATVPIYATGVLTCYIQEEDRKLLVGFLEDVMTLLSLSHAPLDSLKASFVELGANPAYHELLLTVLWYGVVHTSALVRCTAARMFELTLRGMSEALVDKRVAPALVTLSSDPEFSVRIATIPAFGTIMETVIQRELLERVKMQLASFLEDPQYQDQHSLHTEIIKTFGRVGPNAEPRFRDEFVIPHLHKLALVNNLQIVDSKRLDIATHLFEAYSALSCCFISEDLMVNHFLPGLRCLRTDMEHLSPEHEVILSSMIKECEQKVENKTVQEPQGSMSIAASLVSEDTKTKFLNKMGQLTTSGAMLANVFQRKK
Briefly: IP/MS, LZTR1 wild type-FLAG, U87. Summed up: (§1)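 Read-out: spectral counts from LC-MS/MS (Orbitrap Fusion) after MaxQuant identification. Variable modifications were Met oxidation, protein N-terminal acetylation and N/Q deamidation.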

Another assay addresses T2, NCAPG2 (human, UniProt Q86XI2 1-1143, limits assumed).
T2 sequence (looked up): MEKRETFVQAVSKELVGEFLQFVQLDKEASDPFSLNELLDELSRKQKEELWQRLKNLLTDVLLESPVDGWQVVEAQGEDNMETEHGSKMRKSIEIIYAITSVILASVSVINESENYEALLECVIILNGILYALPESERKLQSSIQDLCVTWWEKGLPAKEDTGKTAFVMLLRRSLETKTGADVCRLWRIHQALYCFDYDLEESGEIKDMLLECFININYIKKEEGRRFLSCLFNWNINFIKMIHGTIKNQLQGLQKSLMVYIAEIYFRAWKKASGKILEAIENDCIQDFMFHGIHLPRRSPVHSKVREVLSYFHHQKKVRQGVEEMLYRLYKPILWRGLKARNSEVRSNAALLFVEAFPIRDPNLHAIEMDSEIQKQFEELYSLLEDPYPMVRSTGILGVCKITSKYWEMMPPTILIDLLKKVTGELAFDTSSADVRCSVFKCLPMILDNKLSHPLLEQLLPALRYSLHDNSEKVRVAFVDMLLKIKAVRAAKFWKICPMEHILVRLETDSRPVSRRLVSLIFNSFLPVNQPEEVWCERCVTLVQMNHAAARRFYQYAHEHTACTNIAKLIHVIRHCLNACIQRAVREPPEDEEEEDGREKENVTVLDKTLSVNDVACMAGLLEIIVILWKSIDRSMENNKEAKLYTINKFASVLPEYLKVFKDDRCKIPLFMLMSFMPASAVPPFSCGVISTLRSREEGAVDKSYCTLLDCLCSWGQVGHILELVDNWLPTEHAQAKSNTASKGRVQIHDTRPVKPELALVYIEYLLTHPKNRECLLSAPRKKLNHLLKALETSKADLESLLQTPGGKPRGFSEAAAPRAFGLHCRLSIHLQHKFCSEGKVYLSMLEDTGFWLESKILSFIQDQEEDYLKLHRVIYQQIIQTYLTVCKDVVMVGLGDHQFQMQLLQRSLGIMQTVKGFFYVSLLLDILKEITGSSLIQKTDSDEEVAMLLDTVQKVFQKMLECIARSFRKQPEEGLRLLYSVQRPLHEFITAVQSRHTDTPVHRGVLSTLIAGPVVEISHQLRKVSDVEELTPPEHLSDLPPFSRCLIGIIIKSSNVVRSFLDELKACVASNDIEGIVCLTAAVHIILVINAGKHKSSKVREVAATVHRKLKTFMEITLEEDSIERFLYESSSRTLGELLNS
Briefly: IP/MS, LZTR1 wild type-FLAG, U87. In outline: as §1

B1: LZTR1-FLAG (other, human, UniProt Q8N653 1-840, looked up)
chain: MAGPGSTGGQIGAAALAGGARSKVAPSVDFDHSCSDSVEYLTLNFGPFETVHRWRRLPPCDEFVGARRSKHTVVAYKDAIYVFGGDNGKTMLNDLLRFDVKDCSWCRAFTTGTPPAPRYHHSAVVYGSSMFVFGGYTGDIYSNSNLKNKNDLFEYKFATGQWTEWKIEGRLPVARSAHGATVYSDKLWIFAGYDGNARLNDMWTIGLQDRELTCWEEVAQSGEIPPSCCNFPVAVCRDKMFVFSGQSGAKITNNLFQFEFKDKTWTRIPTEHLLRGSPPPPQRRYGHTMVAFDRHLYVFGGAADNTLPNELHCYDVDFQTWEVVQPSSDSEVGGAEVPERACASEEVPTLTYEERVGFKKSRDVFGLDFGTTSAKQPTQPASELPSGRLFHAAAVISDAMYIFGGTVDNNIRSGEMYRFQFSCYPKCTLHEDYGRLWESRQFCDVEFVLGEKEECVQGHVAIVTARSRWLRRKITQARERLAQKLEQEAAPVPREAPGVAAGGARPPLLHVAIREAEARPFEVLMQFLYTDKIKYPRKGHVEDVLLIMDVYKLALSFQLCRLEQLCRQYIEASVDLQNVLVVCESAARLQLSQLKEHCLNFVVKESHFNQVIMMKEFERLSSPLIVEIVRRKQQPPPRTPLDQPVDIGTSLIQDMKAYLEGAGAEFCDITLLLDGHPRPAHKAILAARSSYFEAMFRSFMPEDGQVNISIGEMVPSRQAFESMLRYIYYGEVNMPPEDSLYLFAAPYYYGFYNNRLQAYCKQNLEMNVTVQNVLQILEAADKTQALDMKRHCLHIIVHQFTKVSKLPTLRSLSQQLLLDIIDSLASHISDKQCAELGADI
notes: Expressed in HEK 293T, HeLa or U87 cells; used as cell lysate; also called LZTR1 wild type-FLAG; LZTR1 WT; not shown: FLAG tag at the C-terminus
With B1, the binding result with KIAA1468 and with NCAPG2 was “binds” in each case.
